Measured values: patent publication US6093692A, “Method and compositions for lipidization of hydrophilic molecules” (The University of Southern California, priority 1997, dated 2000)

Legend:
[1] = set-up: species or system CF-1 mice; settings: mouse, in vivo, iv, 3 mg/kg
Method: Female CF-1 mice, […], weighing 20-25 g each, with free access to food and water prior to the experiments, were used for the animal experiments. ^125 I-BBI (3 mg/kg), as native-BBI or as BBIssPal or BBIssOleic conjugate, was administered to the animals via the tail vein. At 0.5, 3, and 24 hr post-injection, 3 animals from each experiment group were sacrificed and their blood (200 μl), the kidneys, the lungs, and the liver were removed, rinsed in ice-cold PBS, and assayed for accumulated radioactivity. The weights of the organs were recorded and used to adjust the concentration of the conjugates in the organs.

[2] = type: in vitro ADME, hairless mice
Method: Freshly-prepared skins from hairless mice were mounted on small rings. To each mounted skin, a 5 μl sample of ^125 I-labeled BBI or BBIssPal at a concentration of 0.5 mg/ml was applied to an area of 0.38 cm^2. Two pieces of skin were used per treatment. The skins were kept at room temperature (23° C.) in a humidified environment. After 30 minutes, the surface of the skins was first rinsed carefully with PBS; subsequently, the skins were unmounted and soaked twice in 100 ml of PBS. The skins were then blotted with filter papers and counted in a gamma counter. The amount of BBI retained on the skins was calculated using the specific radioactivity of the labeled BBI or BBIssPal. The absorption of BBI and BBIssPal into the mouse skins was 0.14 and 1.6 μg/cm^2, respectively.

[3] = system: Caco-2 cells; type: cell-based, Human
Method: Human colon carcinoma cells (Caco-2) were detached from 25 cm^2 stock culture flasks using a 10 min incubation at 37° C. with 0.5 ml of a trypsin/EDTA solution (0.5% trypsin, 5.3 mM EDTA). The cells were then suspended in 5 ml of Dulbecco's minimum essential medium, supplemented with 15% fetal bovine serum (FBS), L-glutamine (1%), and essential amino acids (1%), and counted using a coulter counter.
Radioiodination of BBI and BBIssPal was carried out using the chloramine-T method [McConahey, P. C. and Dixon, F. J., Meth. Enzymol., 70:221-247 (1980)]. Confluent, 14-day old cell monolayers were washed once with, and then incubated in, serum-free Dulbecco medium at 37° C. for 30 min. Subsequently, the incubation medium was replaced with serum free medium containing ^125 I-BBI (10 μg/ml), either as native-BBI or as BBIssPal or BBIssOleic, and the monolayers were incubated for a further 60 min at 37° C. The monolayers were then washed three times with ice-cold PBS, and then exposed to trypsin (0.5%, EDTA 5.3 mM) for 10 min at 37° C. The detached cells were transferred to tubes, isolated by centrifugation, washed three times using ice-cold PBS, assayed for accumulated radioactivity using a gamma counter, and finally assayed for cell protein using the published method [Lowry, O. H., et al., J. Biol. Chem., 193:265-275 (1951)].
In some experiments the uptake of reduced ^125 I-BBIssPal into cells was determined. ^125 I-BBIssPal was reduced with DTT (50 mM) at 60° C. for 5 min followed by a further 25 min at 37° C. In control experiments, ^125 I-BBIssPal was exposed in medium to the same temperatures without being exposed to DTT.
The uptake of ^125 I-BBIssPal in the presence of BSA (fatty acid free) was determined as follows. ^125 I-BBIssPal was incubated with medium containing 0.1% BSA for 30 min at 37° C. before being added to the cell monolayers. In some uptake experiments, BSA was first mixed with a 3-fold molar excess of palmitic acid, and then incubated with the conjugates prior to the experiments. In the experiments where the uptake of ^125 I-BBIssPal was determined in medium containing FBS, the conjugates was simply added to the medium containing the required amount of FBS.
The cell monolayers were incubated with ^125 I-labeled conjugates at 10 μg/ml for 60 min at 37° C. The results presented are the average of three monolayers ±SEM. The uptake experiments were carried out in Dulbecco medium, in the presence and absence of added FBS.
The cell uptake of ^125 I-BBI, either as the native protein or as BBIssPal was determined before and after reduction with DTT (50 mM) for 5 min at 60° C. and 25 min at 37° C.
The uptake experiments were carried out in Dulbecco medium, in the presence and absence of added fatty acid-free BSA (BSA) or fatty acid-loaded BSA (BSA/FA). The results of studies of the uptake of ^125 I-BBI, either as the native-BBI or in conjugated form to palmitic or oleic acid, in Caco-2 cells in the presence of serum-free medium are presented in FIG. 1. The results are shown as the average ng of BBI internalized ±SEM, n=3. The uptake of ^125 I-BBIssPal into the cells was approximately 100-fold higher than that of ^125 I-BBI. […] The difference between the uptake of ^125 I-BBIssPal and ^125 I-BBIssOleic were significant.

[4] = system: C3H 10T1/2 cells; assay: Plating efficiency; type: cell-based
Method: The plating efficiency (PE) of the cells was also studied in conjunction with each of the transformation assays. To determine the PE of the cells in the different treatment groups, cells (200 cells/dish) were seeded into three 60-mm petri dishes per experiment group and treated in the identical manner as the transformation assay cells. The cells in these assays were terminated at 10 days, fixed with 100% methanol, and stained with giemsa; the colonies of 50 cells or more visible under a microscope were then counted. The plating efficiency is defined as the (number of colonies/number of cells seeded)×100%.

B1: BBIssPal: the palmityl disulfide conjugate of BBI (conjugate, UniProt P01055 40-110, looked up)
Bowman-Birk type proteinase …: DDESSKPCCDQCACTKSNPPQCRCSDMRLNSCHSACKSCICALSYPAQCFCVDITDFCYEPCKPSEDDKEN
modifications: palmityl disulfide; 125I
notes: the palmityl disulfide conjugate of BBI
- Blood levels and removal from circulation [1]: accumulated in the blood at a relatively high level
- Kidney accumulation [1]: BBIssPal was not
- Kidney clearance, fold lower than native-BBI [1]: about 4 fold
- Liver accumulation, fold higher than BBI [1]: approximately 5 fold
- Lung accumulation/levels, fold higher than BBI [1]: approximately 2 fold
- Retention in the liver [1]: remained high in the liver even at 24 hr post-injection
- Increase of BBI absorption into the skin [2]: more than 10 fold
- Internalization, fold over that of BBI [3]: 35 fold
- Reduction of uptake after reduction with DTT [3]: approximately 80%
- Reduction of uptake by defatted-BSA [3]: 82%
- Uptake, fold higher than native-BBI [3]: 10 fold
- Plating Efficiency [4]: 23 ± 3.0%
